This note sets out measurements from PMC5193325.

This experiment has as its target Flag-NLRP3 (UniProt Q96P20). The experiment is described as follows: pull-down; competition: purified cytochrome c (100 ng) or BSA added to Flag-NLRP3 immunoprecipitates with HA-NEK7 lysate, 1 hour at room temperature; NEK7 left on the beads read by immunoblot, ImageJ. A general note: Immunoblotting shows a protein as a band on a membrane.

Chain of Flag-NLRP3 (Q96P20 whole entry): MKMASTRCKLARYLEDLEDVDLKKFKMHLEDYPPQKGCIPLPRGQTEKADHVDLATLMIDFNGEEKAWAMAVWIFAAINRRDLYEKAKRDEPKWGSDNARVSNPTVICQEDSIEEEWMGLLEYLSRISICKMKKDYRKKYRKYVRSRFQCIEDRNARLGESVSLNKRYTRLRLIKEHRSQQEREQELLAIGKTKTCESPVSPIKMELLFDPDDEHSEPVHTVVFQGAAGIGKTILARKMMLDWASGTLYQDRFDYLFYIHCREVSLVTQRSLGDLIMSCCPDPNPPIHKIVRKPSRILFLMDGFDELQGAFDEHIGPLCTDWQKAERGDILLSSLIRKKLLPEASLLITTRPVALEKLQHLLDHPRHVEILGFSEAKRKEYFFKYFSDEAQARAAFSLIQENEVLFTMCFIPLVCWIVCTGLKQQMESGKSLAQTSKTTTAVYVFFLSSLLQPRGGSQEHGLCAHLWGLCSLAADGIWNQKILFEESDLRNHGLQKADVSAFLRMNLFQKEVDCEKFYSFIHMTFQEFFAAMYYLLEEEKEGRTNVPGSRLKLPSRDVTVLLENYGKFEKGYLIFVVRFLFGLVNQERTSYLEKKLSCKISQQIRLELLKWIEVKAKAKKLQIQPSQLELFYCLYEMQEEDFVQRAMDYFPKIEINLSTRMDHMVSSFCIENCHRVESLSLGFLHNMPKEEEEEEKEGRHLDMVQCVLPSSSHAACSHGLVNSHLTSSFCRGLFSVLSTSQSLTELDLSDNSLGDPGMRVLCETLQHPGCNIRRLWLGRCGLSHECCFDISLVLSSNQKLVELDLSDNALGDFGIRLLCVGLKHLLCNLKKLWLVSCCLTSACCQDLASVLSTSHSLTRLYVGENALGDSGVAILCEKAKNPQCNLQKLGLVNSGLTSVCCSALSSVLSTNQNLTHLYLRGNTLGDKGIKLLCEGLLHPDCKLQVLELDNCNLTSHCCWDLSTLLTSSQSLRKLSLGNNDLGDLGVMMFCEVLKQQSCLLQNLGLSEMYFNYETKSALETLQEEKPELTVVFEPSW

The substance “Purified cytochrome c protein (Sigma-Aldrich) (from UniProt P99999 1-105) (natural protein)” returned a percent reduction of NEK7 bound to Flag-NLRP3 (cytochrome c against BSA) of 70%.
